Experimental data reported in CN115124615A (SICHUAN YIAI TECH CO LTD, dated 2022).
Substitutions are numbered along the chain they refer to.

B1: 纳米抗体N5 (VHH)
VHH: QVQLVESGGGPVQAGGSLRLSCAAAGSALSIYRMGWYRQAPGKQRELVAFITTGGSTDHIDSVKGRFTISRDNAKNTVYLQMNSLKPEDTAVYYCNSDPPWVLGADWGQGTQVTVSS
notes: also called R5
B2: 纳米抗体N1 (VHH)
VHH: QVQLVESGGGLVQPGGSLRLSCTASGSGFSNNNMAWYRQAPGKAREWVAAVSSSGNTNYAASAKGRFTISRDNAKNTVYLQMSSLKPEDTAVYYCYAVAPEGGDSWGQGTQVTVSS
notes: also called R1
B3: 纳米抗体N10 (VHH)
VHH: B2 VHH with Q13E, P14A, T23A, S27I, G28I, N31I, A44P, A63V, V78L
notes: also called R10
B4: 纳米抗体N3 (VHH)
VHH: QVQLVESGGGLVQAGGSLRLSCRASGSVFTMGWHRQAPGNGREFVASITRDGNANYKGSVKDRFTISRDNGKNTLYLQMNSLKPEDTAVYYCIDYNTSTWGQGTQVTVSS
notes: also called R3
B5: 纳米抗体N22 (VHH)
VHH: QVQLVESGGGLVQAGGSLRLSCRASGTVFNMGWHRQAPGQQREFVASISHDGRTNYAGSVKGRFTISRDNTKNTLYLQMNSLKPEDTAVYYCIDYHTSLWGQGTQVTVSS
notes: also called R22

molecular target: 新冠病毒刺突蛋白(S蛋白) (SARS-CoV-2, UniProt P0DTC2 14-1213); experiment: cell-based or functional assay

Binder	假病毒中和 IC50 [µg/mL]
B1	0.023

molecular target: T1, SARS-CoV2病毒表面SPIKE蛋白的RBD结构域 (SARS-CoV-2, UniProt P0DTC2 319-541); experiment: SPR (Biacore)
T1 construct: domain: RBD结构域

Binder	Kd [nM]
B1	5.3
B2	0.56
B3	0.59
B4	1.4
B5	0.19
